Numbering of substitutions follows the chain as printed. Names may count otherwise. Like-named read-outs stand apart in the source and are kept apart here.
Key:
SEC = molecular target: the molecule itself; assay: SEC
[1] = molecular target: the molecule itself

B1: human PUS3 D118A, catalytically inactive variant (enzyme, UniProt Q9BZE2 1-481, looked up)
chain: MAYNDTDRNQTEKLLKRVRELEQEVQRLKKEQAKNKEDSNIRENSAGAGKTKRAFDFSAHGRRHVALRIAYMGWGYQGFASQENTNNTIEEKLFEALTKTRLVESRQTSNYHRCGRTAKGVSAFGQVISLDLRSQFPRGRDSEDFNVKEEANAAAEEIRYTHILNRVLPPDIRILAWAPVEPSFSARFSCLERTYRYFFPRADLDIVTMDYAAQKYVGTHDFRNLCKMDVANGVINFQRTILSAQVQLVGQSPGEGRWQEPFQLCQFEVTGQAFLYHQVRCMMAILFLIGQGMEKPEIIDELLNIEKNPQKPQYSMAVEFPLVLYDCKFENVKWIYDQEAQEFNITHLQQLWANHAVKTHMLYSMLQGLDTVPVPCGIGPKMDGMTEWGNVKPSVIKQTSAFVEGVKMRTYKPLMDRPKCQGLESRIQHFVRRGRIEHPHLFHEEETKAKRDCNDTLEEENTNLETPTKRVCVDTEIKSII
stoichiometry N (SEC): 2

B2: human PUS3 H355T/T359A (enzyme, UniProt Q9BZE2 1-481, looked up)
chain: B1 chain with A118D, H355T, T359A
stoichiometry N [1]: 2

Reference: PMC11258540 (Molecular Cell, 2024)
